Data published in patent US20170354129A1 (NATIONAL AGRICULTURE AND FOOD RESEARCH ORGANIZATION, published 2017).

Assays:
[1] = molecular target: T1, F-AGE (AGEs prepared by fructose treatment of BSA) (bovine, UniProt P02769 25-607, glycated by fructose, 37 C for 12 weeks (sites not given)); assay: SPR single cycle kinetics, biotinylated sRAGE on a streptavidin (SA) chip, F-AGE as analyte
T1 construct: also called F-AGEs; fructose treated BSA

[2] = molecular target: T2, fully oxidized LDL (UniProt P04114 28-4563, oxidatively modified with copper for 20 hours at 37 C (sites not given)); assay: phage ELISA on oxidized LDL
T2 construct: Lipoprotein particle; also called fuOxLDL; FoxLDL
T2 sequence (P04114 28-4563): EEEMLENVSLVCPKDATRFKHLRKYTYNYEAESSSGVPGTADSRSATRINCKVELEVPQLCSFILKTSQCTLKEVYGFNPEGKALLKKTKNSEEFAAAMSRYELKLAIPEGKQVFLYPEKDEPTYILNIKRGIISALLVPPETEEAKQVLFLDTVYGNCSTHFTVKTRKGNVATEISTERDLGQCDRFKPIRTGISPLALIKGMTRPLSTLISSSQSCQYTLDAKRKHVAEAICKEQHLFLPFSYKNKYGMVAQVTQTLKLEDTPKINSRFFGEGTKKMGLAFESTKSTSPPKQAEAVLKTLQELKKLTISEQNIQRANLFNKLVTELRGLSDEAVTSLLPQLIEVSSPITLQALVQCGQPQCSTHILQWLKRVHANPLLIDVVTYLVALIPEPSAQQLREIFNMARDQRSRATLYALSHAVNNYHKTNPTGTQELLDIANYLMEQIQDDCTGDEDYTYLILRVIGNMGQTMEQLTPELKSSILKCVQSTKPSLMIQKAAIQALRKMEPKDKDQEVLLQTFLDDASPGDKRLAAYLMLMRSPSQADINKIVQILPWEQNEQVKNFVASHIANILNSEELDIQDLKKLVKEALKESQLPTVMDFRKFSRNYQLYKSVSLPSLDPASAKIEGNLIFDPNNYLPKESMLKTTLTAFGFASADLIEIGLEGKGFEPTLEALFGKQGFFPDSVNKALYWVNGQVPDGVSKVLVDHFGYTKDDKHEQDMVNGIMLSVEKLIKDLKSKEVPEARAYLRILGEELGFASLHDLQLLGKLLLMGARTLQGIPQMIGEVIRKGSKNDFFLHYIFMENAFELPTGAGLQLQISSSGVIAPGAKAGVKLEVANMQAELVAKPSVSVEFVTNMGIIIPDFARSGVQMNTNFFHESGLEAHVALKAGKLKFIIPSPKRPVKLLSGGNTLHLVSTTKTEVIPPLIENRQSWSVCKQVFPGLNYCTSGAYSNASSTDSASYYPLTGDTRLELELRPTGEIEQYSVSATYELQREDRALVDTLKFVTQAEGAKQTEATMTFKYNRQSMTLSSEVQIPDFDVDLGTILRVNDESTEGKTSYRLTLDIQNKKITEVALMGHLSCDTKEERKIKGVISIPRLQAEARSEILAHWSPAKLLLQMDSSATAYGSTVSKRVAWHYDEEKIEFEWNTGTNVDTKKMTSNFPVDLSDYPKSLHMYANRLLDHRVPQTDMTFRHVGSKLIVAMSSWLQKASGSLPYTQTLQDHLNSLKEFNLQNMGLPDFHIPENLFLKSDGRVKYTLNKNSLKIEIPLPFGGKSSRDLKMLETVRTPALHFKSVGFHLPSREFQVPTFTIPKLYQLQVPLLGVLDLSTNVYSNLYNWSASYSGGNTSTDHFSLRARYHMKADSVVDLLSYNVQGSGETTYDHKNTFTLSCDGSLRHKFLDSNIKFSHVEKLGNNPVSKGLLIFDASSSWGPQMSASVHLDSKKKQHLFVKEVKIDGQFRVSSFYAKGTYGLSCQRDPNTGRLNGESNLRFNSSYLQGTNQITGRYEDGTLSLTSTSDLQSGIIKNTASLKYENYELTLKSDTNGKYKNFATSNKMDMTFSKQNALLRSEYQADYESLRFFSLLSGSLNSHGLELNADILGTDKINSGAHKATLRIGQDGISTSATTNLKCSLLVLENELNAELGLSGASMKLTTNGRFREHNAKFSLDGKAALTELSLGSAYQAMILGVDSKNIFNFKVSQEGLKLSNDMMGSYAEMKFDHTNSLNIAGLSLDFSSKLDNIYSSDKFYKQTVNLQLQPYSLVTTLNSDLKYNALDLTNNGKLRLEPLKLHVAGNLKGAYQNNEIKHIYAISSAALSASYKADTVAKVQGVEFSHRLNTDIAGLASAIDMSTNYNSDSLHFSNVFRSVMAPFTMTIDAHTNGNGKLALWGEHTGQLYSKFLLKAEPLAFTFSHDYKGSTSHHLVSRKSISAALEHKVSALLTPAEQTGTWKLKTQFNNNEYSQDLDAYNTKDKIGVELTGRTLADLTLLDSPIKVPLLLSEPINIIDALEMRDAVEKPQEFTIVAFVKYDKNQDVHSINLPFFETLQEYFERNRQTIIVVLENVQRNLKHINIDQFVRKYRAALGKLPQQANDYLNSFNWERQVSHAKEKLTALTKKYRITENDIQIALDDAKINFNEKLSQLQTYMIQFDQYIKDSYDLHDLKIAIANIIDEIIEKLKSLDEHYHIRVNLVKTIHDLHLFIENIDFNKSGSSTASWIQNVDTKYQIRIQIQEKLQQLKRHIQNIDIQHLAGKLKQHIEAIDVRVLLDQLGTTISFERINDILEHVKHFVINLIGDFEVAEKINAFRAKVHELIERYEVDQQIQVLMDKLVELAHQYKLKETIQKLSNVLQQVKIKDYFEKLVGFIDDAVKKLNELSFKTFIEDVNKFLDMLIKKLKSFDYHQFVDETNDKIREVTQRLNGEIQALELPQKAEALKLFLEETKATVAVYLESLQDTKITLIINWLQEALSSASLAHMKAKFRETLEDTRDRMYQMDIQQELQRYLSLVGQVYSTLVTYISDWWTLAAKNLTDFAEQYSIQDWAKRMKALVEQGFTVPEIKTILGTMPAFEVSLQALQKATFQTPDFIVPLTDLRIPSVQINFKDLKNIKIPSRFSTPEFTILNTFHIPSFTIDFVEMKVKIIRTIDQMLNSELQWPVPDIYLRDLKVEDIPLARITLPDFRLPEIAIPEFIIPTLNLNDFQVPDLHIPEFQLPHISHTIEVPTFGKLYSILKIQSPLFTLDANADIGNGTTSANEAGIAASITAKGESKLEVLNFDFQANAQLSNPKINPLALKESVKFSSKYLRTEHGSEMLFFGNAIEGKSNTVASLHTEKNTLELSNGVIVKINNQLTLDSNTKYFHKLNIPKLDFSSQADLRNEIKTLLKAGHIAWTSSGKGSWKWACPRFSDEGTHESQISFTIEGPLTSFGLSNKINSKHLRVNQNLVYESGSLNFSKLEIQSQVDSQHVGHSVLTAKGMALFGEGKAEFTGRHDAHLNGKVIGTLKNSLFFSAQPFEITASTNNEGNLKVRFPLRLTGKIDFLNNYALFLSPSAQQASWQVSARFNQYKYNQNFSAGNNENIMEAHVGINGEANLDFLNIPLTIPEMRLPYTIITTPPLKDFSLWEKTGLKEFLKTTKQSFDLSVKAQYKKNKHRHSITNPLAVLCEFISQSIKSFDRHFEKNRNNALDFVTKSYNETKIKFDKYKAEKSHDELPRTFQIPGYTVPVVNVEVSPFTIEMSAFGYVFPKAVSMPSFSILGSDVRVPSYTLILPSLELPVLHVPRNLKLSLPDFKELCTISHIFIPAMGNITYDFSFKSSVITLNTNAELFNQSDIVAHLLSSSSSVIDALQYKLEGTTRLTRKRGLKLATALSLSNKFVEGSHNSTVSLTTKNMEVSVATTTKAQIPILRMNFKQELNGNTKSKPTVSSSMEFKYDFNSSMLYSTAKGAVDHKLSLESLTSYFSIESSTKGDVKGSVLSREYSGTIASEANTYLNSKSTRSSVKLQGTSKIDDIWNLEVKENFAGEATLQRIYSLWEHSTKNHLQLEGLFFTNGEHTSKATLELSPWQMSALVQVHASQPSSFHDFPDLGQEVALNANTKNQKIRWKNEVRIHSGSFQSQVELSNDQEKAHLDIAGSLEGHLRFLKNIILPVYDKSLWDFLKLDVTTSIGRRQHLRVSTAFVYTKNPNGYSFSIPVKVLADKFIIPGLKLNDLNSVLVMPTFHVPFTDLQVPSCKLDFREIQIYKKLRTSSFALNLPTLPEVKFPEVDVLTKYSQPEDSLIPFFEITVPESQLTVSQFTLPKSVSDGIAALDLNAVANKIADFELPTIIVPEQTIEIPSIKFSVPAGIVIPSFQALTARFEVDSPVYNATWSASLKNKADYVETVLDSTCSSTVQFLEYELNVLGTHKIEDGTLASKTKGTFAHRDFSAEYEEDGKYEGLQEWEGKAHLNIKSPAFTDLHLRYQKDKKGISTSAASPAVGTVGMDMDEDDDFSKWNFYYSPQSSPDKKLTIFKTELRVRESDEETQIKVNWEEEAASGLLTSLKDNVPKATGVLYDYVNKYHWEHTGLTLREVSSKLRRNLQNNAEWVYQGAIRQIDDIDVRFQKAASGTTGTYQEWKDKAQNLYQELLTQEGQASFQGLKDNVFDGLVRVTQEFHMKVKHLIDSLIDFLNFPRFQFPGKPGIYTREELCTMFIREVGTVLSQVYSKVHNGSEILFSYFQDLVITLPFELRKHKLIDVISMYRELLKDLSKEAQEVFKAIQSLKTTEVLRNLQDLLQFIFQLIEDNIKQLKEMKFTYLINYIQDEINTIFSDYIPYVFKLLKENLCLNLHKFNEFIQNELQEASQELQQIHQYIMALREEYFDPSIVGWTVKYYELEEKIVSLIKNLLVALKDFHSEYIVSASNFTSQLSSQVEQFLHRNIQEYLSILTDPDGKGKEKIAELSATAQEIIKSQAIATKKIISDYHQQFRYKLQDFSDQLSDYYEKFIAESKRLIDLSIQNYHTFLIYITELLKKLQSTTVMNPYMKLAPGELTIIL

[3] = molecular target: T3, partially oxidized LDL (UniProt P04114 28-4563, oxidatively modified with copper for 4 hours at 37 C (sites not given)); assay: direct ELISA, lowest antigen amount at which detection was possible
T3 construct: Lipoprotein particle; also called moOxLDL; moLDL
Description: (§1) Antigen recognition activity of a purified single chain antibody was evaluated by direct ELISA. LDLs, acetylated LDLs, partially oxidized LDLs, and fully oxidized LDLs were used as antigens. 0.05 to 10 μg/ml of antigen solution was added to a polystyrene 96-well microwell plate at 100 μl/well and allowed to adsorb overnight at 4° C. The plate was washed three times with PBS (200 μl/well). Blocking buffer (0.25% BSA/PBS) was added at 200 μl/well. The mixture was left standing for 2 hours at room temperature. After the plate was washed three times with PBS (200 μl/well), 2.5 μg/ml/PBS single chain antibody was added at 100 μl/well and reacted for 1 hour at room temperature. The plate was washed five times with PBS (200 μl/well) and anti-His-HRP antibody diluted 1000-fold with blocking buffer was added at 100 μl/well and reacted for 1 hour at room temperature. After washing the plate five times with PBS (200 μl/well), 3,3′,5,5′-tetramethyl-benzidine (TMB) was added at 50 μl/well. The luminescence was examined and 150μ/well of 1N HCl was added to suspend the reaction. Subsequently, the absorbance at 450 nm for each well of the plate was measured (FIG. 11).
(§2) The detection limit was calculated as the detection limit at the lowest concentration at which detection was possible in measured specimens at different dilution levels.

[4] = molecular target: T4, acetylated LDL (UniProt P04114 28-4563, acetylated (sites not given)); assay: as above
T4 construct: Lipoprotein particle; also called AcLDL; Ac LDLs
T4 sequence (P04114 28-4563): as above
Description: as §1, §2

[5] = molecular target: T5, LDL (unmodified low density lipoprotein) (UniProt P04114 28-4563); assay: as above
T5 construct: Lipoprotein particle, not a pure protein; also called LDLs; unmodified LDL
Description: as §1, §2

[6] = molecular target: T2, fully oxidized LDL; assay: as above
Description: as §1, §2

T1 sequence (P02769 25-607 limits assumed): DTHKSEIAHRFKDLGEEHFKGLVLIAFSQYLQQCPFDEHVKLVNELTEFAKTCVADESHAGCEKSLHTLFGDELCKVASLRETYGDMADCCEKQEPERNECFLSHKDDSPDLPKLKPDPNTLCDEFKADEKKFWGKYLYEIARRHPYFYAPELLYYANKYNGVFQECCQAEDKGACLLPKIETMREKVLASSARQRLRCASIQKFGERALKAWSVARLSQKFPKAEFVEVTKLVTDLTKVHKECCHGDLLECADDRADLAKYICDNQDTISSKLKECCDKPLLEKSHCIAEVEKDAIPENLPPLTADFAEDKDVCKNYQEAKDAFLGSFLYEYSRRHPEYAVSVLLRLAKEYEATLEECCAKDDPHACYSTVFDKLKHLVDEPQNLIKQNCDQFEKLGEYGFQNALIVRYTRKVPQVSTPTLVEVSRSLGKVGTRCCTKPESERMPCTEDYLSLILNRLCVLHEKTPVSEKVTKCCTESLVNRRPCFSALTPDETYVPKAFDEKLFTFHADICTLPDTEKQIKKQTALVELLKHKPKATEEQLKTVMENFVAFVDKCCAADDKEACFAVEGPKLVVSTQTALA

B1: E. coli form biotinylated sRAGE (Comparative Example 2) (receptor)
chain: AQNITARIGEPLVLKCKGAPKKPPQRLEWKLNTGRTEAWKVLSPQGGGPWDSVARVLPNGSLFLPAVGIQDEGIFRCQAMNRNGKETKSNYRVRVYQIPGKPEIVDSASELTAGVPNKVGTCVSEGSYPAGTLSWHLDGKPLVPNEKGVSVKEQTRRHPETGLFTLQSELMVTPARGGDPRPTFSCSFSPGLPRHRALRTAPIQPRVWEPVPLEEVQLVVEPEGGAVAPGGTVTLTCEVPAQPSPQIHWMKDGVPLPLPPSPVLILPEIGPQDQGTYSCVATHSSHGPQESRAVSISIIEPGEEGPTAGSGLNDIFEAQKIEWHE
notes: Not glycosylated; expressed in Origami B (DE3) together with a biotin ligase; also called E. coli form sRAGE; purified soluble biotinylated RAGE; not shown: His tag present at the N-terminus
B1 showed a Kd [1] of 280 nM.

B2: single chain antibody γ+κ 12, pCANTAB5E clone 12 (phage presented and soluble forms) (scFv)
scFv: MAQVQLQQSGPGLVKPSQTLSLTCDISGDSISTNGAAWNWIRQSPSRGLEWLGRTFYRSKWYNDYAVSVKSRMIINPDTSKNQFSLQLSSVTPEDTAVYYCARVACSGGTCLDGIDVWGQGTTVTVSSGGGGSGGGGSGGGGSDIVMTQSPSSLSASVGERVTITCRASQAIRNDLGWYQQKPGKAPKLLVYSASNLQSGVPSRFSGSGSGTDFTLTISSLQPEDFATYYCQQYHSYPRTFSQGTKLEIKR
notes: not shown: C-terminal E tag from pCANTAB5E
B2 was tested, and the A450 [2] was ≥ 0.6 A450.

B3: single chain antibody γ+κ 96, pCANTAB5E clone 96 (phage presented and soluble forms) (scFv)
scFv: MAEVQLVESGAEAKKPGESLKISCKGSGYSFTTNWIGWVRQLPGKGLDWMGIIYPDDSDTRYSPSFQGQVTISADKSISTAYLQWNSLKASDTAMYYCARRQWGSFDLWGQGTMVTVSSGGGGSGGGGSGGGGSEIVLTQSPATLSLSPGERATLSCRASQSVSSFLAWYQQKPGQAPRLLIYGASSRATGIPDRFSGSGSGTDFTLTINRLEPEDFAVYYCQYYGSSGTFGQGTKVEIKR
notes: as for B2
B3 was tested, and the A450 [2] was ≥ 0.6 A450.

B4: single chain antibody γ+κ 5 expressed from pET-22b(+) in E. coli BL21 (DE3), refolded and purified (scFv)
scFv: MAQVQLQQSGPGLVKPSQTLSLTCAISGDSVSSRDAAWNWIRQSPSRGLEWLGRTYYRSEWYTDYAVSLESRLTVNPDTSRNQFSLQLNSVTPEDTAVYLCARGSSWGHAPAFFDYWGQGTLVTVSSGGGGSGGGGSGGGGSDIQMTQSPSSLSASVEDRVAITCRASQSVSTYVAWYQQKPGKAPKLLISQASSLENGVPSRFSGSGSGTDFTLTISSLQPEDFATYYCQQYTTYPYTFGQGTKLEIKR
notes: Human scFv (VH gamma - linker - V kappa) from a spleen library; detected through its His tag with anti-His-HRP; also called clone No. 5; purified single chain antibody; not shown: C-terminal His tag from pET-22b(+) (XhoI cloning)
B4 gave a detection limit [3] of 10 ng/100 µl well, a detection limit [4] of 10 ng/100 µl well and a detection limit [5] of 5 ng/100 µl well. For the same binder, the detection limit [6] was 20 ng/100 µl well.

B5: single chain antibody γ+κ 5, pCANTAB5E clone 5 (phage presented and soluble forms) (scFv)
scFv: B4 scFv
notes: the phage-presented and the soluble form are kept under one id, the assay field tells which was used; not shown: C-terminal E tag from pCANTAB5E (phage form: fused to the phage coat protein)
In the case of B5, the A450 [2] is reported as ≥ 0.6 A450.

B6: single chain antibody γ+κ 19, pCANTAB5E clone 19 (phage presented and soluble forms) (scFv)
scFv: MAEVQLVESGAEVKNPGASVKVSCKASGYTLTGYYMHWVRQAPGQGLEWMGGIIPMYGTPTYAPRFQGRVTFTADYSTNTVYMELRSLRSEDTAVFYCARQADSASYLDYWGQGTLVTVSSGGGGSGGGGSGGGGSDVVMTQSPGTLSLSPGERATLSCRASQSLDSSYLAWYQQKPGRAPRLLIYGASDRDTGIPDRFSGSGSGTDFTLTISRLEPEDFAVYYCQQYGRSRTFGQGTKLEIKR
notes: as for B2
B6 was tested, and the A450 [2] was ≥ 0.6 A450.

B7: silkworm form biotinylated sRAGE (silkworm coexpressing BirA, biotin feed, Example 19) (receptor)
chain: GHHHHHHHHHHSSGHIDDDDKHMAQNITARIGEPLVLKCKGAPKKPPQRLEWKLNTGRTEAWKVLSPQGGGPWDSVARVLPNGSLFLPAVGIQDEGIFRCQAMNRNGKETKSNYRVRVYQIPGKPEIVDSASELTAGVPNKVGTCVSEGSYPAGTLSWHLDGKPLVPNEKGVSVKEQTRRHPETGLFTLQSELMVTPARGGDPRPTFSCSFSPGLPRHRALRTAPIQPRVWEPVPLEEVQLVVEPEGGAVAPGGTVTLTCEVPAQPSPQIHWMKDGVPLPLPPSPVLILPEIGPQDQGTYSCVATHSSHGPQESRAVSISIIEPGEEGPTAGSRSGAGTPVTAPLAGTIWKVLASEGQTVAAGEVLLILEAMKMETEIRAAQAGTVRGIAVKAGDAVAVGDTLMTLAGTKLGPEQKLISEEDLNSAVDHHHHHH
modifications: a single biotin on the biotinylation tag; silkworm form N-linked sugar chains at two sites
notes: also called Biotin tag sRAGE; Biotin-RAGE
B7 showed a Kd [1] of 220 nM.

B8: single chain antibody γ+κ 40, pCANTAB5E clone 40 (phage presented and soluble forms) (scFv)
scFv: MAQVQLVQSGVELRKPGDSVKVSCKASGYSVNTHGMSWVRQAPGQGLEWLGRISSYIGLTKFAQKFQDRVTLTTDTSTNTAYLEMRSLKSDDTAVYFCGRDDYEYDAFDVWGQGTMVTVSSGGGGSGGGGSSGGGSEIVLTQSPATLSVSPGERATLSCRTTESVTDSQLAWYQQKPGQAPRLLIYGPSTRATGIPDRFSGSGSGTDFTLTISGLEPEDFAVYYCQQRNSWYTFGQGTKLEIKR
notes: as for B2
For B8, the A450 [2] was ≥ 0.6 A450.
